These results are taken from PMC6429771, “Identification of new glutamate decarboxylases from Streptomyces for efficient production of γ-aminobutyric acid in engineered Escherichia coli” (Journal of Biological Engineering, 2019).

Common to all, as to assay: GABA formation by Berthelot reaction, A630, Lineweaver-Burk plot
Substrate in series [1]: N[C@@H](CCC(=O)O)C(=O)O
In kind it is biochemical, Streptomyces chromofuscus. The following applies: 0.01 mM PLP, 200 mM Na2HPO4-citric acid buffer pH 4.2, 37 °C, 5-100 mM MSG.

Substrate in series [2]: N[C@@H](CCC(=O)O)C(=O)O
In kind it is biochemical, Streptomyces toxytricini. The settings on record: 0.01 mM PLP, 200 mM Na2HPO4-citric acid buffer pH 5.2, 37 °C, 5-100 mM MSG.

Substrate in series [3]: N[C@@H](CCC(=O)O)C(=O)O
In kind it is biochemical, Escherichia coli. The following applies: 0.01 mM PLP, 200 mM Na2HPO4-citric acid buffer pH 4.0, 37 °C, 5-100 mM MSG.

B1: ScGAD (Streptomyces chromofuscus) (protein)
chain: MPLHQGADRAADIPEEDRAELRRLSLNPFYGEADPVSEMTSAPPTQRLPEGPTPPHTAYQLVHDELMLDGNSRLNLATFVTTWMEPQAGVLMAECQDKNMIDKDEYPRTAELERRCVAMLADLWNAPDPATAVGCSTTGSSEACMLAGLALKRRWAKRNAARYPATARPNLVMGVNVQVCWEKFCTFWEVEARLVPMEGDRFHLDPQAAADLCDEDTIGVVAVLGSTFDGSYEPVAELCAVLDALQERTGLDVPVHVDGASGAMIAPFLDEDLVWDFRLPRVSSINTSGHKYGLVYPGVGWALWRSPAELPEELVFRVNYLGGDMPTFALNFSRPGAQVVAQYYTFLRLGRDGYRAVQQTARDIATTLSARIERLGGFRLLTRGDQLPVFAFTTASDVTNFDVFDVSRRLREHGWLVPAYTFPAHREDLSVLRVVCRNGFSADLAAMLVADLKRVLPELRAQERPMDRDPSAATAFHH
In the case of B1, in series [1], the Km (in general, the substrate concentration at which the rate is half of its maximum) was found to be 23.25 ± 2.07 mM; the Vmax (commonly the top rate of the reaction or transport when substrate is in excess) stood at 29.9 ± 2.16 µmol/min/mg; the kcat (commonly the number of substrate molecules converted per active site and unit of time at saturation) worked out at 28.1 ± 1.99 s⁻¹; the kcat/Km (usually the turnover number divided by the Michaelis constant) worked out at 1210 ± 90 M⁻¹ s⁻¹.

B2: StGAD (Streptomyces toxytricini) (protein)
chain: MALHKTKDVTGGDTGTDVFTTALSGRVLPKYRMPEEHSPSEAVYALLRNELLLDGNAAQNLATFCTTWSDDGVHRLMNECLDKNMVDKDEYPQTAEIEARCVNILAHLWHAPAEDGPATGCSTTGSSEAAMLGGLALKWRWRARRRAQGLPADRPNLVCGPVQVCWEKFARYFDVELRQIPLEEDATGLRPHQLAEYVDENTIGVVAILGVTYTCDYEPVADIAAALDAIQQEHGWDVPIHVDGASGGLVAPFLHPDVVWDFALPRVASINTSGHKYGLAPLGVGWVVWRTADLLPPELVFDVDYLGGDMPTFALNFSRPGGEAIAQYYLFLRLGRSGYRSVHQSCADTARFLAGEIAAMGPFTLLYDGQGALPAVSYRLTDPAAAGFTLYDLSDRLRMRGWQVPAYPLPARRDDTVIQRVLIRHGVTLDQIALLAEDMRRALDHLRAAPPTQPPTAPRSGFHH
notes: full-length ORF (1395 bp, about 464 residues, 53 kDa) in pET28a (NdeI/HindIII), His6-tagged, expressed in E. coli BL21(DE3), Ni-NTA purified
Take B2: in series [2], the Km is on record as 7.67 ± 0.55 mM, the maximal velocity (Vmax) is 0.226 ± 0.01 µmol/min/mg, the kcat turned out to be 0.2 ± 0.02 s⁻¹ and the kcat/Km was 26 ± 3 M⁻¹ s⁻¹.

B3: GadB (Escherichia coli K-12) (protein)
chain: MDKKQVTDLRSELLDSRFGAKSISTIAESKRFPLHEMRDDVAFQIINDELYLDGNARQNLATFCQTWDDENVHKLMDLSINKNWIDKEEYPQSAAIDLRCVNMVADLWHAPAPKNGQAVGTNTIGSSEACMLGGMAMKWRWRKRMEAAGKPTDKPNLVCGPVQICWHKFARYWDVELREIPMRPGQLFMDPKRMIEACDENTIGVVPTFGVTYTGNYEFPQPLHDALDKFQADTGIDIDMHIDAASGGFLAPFVAPDIVWDFRLPRVKSISASGHKFGLAPLGCGWVIWRDEEALPQELVFNVDYLGGQIGTFAINFSRPAGQVIAQYYEFLRLGREGYTKVQNASYQVAAYLADEIAKLGPYEFICTGRPDEGIPAVCFKLKDGEDPGYTLYDLSERLRLRGWQVPAFTLGGEATDIVVMRIMCRRGFEMDFAELLLEDYKASLKYLSDHPKLQGIAQQNSFKHT
As for B3, in series [3], the Km turned out to be 35.83 ± 2.40 mM, the Vmax worked out at 12.5 ± 0.72 µmol/min/mg, the catalytic constant (kcat) is 11 ± 0.88 s⁻¹ and the kcat/Km worked out at 310 ± 20 M⁻¹ s⁻¹.
